The text below walks through data of the DeepSol protein solubility set.

The series is described as follows: soluble on expression in E. coli; label from the status in PepcDB or PDB records.
Turning to “MSLRIIKAGLIGCGNISSIYFENVHRFKHLTIVACADLHLERARAQAEKYRIPKACTVAELLEDPEIELVINLTIPQVHAKVCIQALEAGKHVYTEKPLTITLEEGQKLLEKAKETGLLVGCAPDTFLGAGIQTSIQVIERGEIGTPVGASAFMIGRGHEHWHPDPAFYYDVGGGPMYDMGPYYLTALTALLGPMARVSGSARITYPERTILSEPKKGTKIKVSTPTHISGVIDFANGAIASITTSFDAFGGSVLPPIEVYGSEGTLLVPDPNTFDGPVQLRKRDEREFVEVPLTYHYTENNRGIGVADMAMSLLTGSDYRASGTMGFHVLEAMHGFHMSSTSGHHYQMKSTCRKPEPLPVDFRFSYVETEGHHHHHH”, the “soluble on expression in E. coli” value is recorded as “soluble”. As for “MSLRKDLSEKVLIADGAMGTLLYSYGVDRSFEELNLSHPEDIVAIHKAYIGAGADIIQTNTYGANYIKLARYGLEDEVKRINQAAIRLAKEAARGTGTYIFGTIGGINGAVDARLPAAPLEEIKRSFREQLYCFLLDGVDAILLETYYDLDELKTVLKILRETTDLPVVANVSMHEPGILQNGKKLPDALEELIALGADVVGINCRLGPYHMARALETVPLYDNAYLAVYPNASLPEMQEGKVIYQSDTDYFEHYGEVFRQEGARIIGGCCGTTPDHIRALRKGLETTKPILEKEVRPILELVPEEVEDVDSGERLLDKVKERLTILVELDPPRTFDTTKFFEGAQALDEAGVDAITISDNSLATPRISNMALASILKHEYGIKPLIHLTTRDHNLVGMHSHVMGFHKLGLHDVLAITGDPTKVGDFPGASSVFDLRSVELVQLIKKFNDGISYTGKSLKEKARFHVGAAFNPNVLNLEKAVRLIERKVEYGADYIITQPIYDVNKAILLKEALQKANIDVPLFIGVMPLLSSRNAEFLHNEVPGIRLTDDVRERMREAEEHGHANEEGMAIARELVDAICEHFQGIYIITPFLRYDLSIELAKYAQNKQQVQIGSKEGHHHHHH”, the “soluble on expression in E. coli” value was “soluble”.

As to “MSLRKTQTYKSLPYNPALRDRAKALRKAGILHEALLWFELKSNKLNGLDFDRQKIIGNYIVDFYCAERSVVIEVDGSSHDSKQIEDRERDAYLNGLGLTVIRVLAKDVLRNLEGVVEFLKDHPALTGTPPEEGNKTALTGTPPEEGNKTALTGTPPEEGNKTALTGTPPEEGNKTALTGTPPEEGNKTTLTEAREEGHHHHHH”, the “soluble on expression in E. coli” value is listed as “soluble”.

With “MSLRLKTILLTTMATGSFLCEPVAAMCIEPPATPDMGWFLKKKKKSNPQDSIKVKNEYEKLTGSDSVVRRGMFNVYQKKNDYYFEIPSTLLERDMLVVNKLQRVPAELNEAGVNRGTNYENQMIRFELDKSANKLLIRQSRPLPISPSEDAISQSVKDNYISPLIAGFKVEAYNNDSTSILIKVNDIYDGTETSINNVFTNINLGTSAIKNLSRILSIKSFDNNVVATSELTTRVTEGTTTIYVTVEVSSSILLLPEVPMTGRLDNPRVGYFTNPLTNFSDGQQRVNKKQFITRWRLEPRPEDRAAYLRGELVEPRKPIVFYIENSTPYRWRKYIKQGIEDWQVAFERAGFKNAIIAKDITEDMEVDMDDVNYSVLTYAASTKANAMGPSILDPRSGEILEADIMWWHNVLSMLQEWITVQTGVVRPEARGVALPDSLMGDAMRFVACHEVGHSLGLRHNMMGSWAFPTDSLRSKTFTDRMNSTSSSIMDYARFNYVAQPGDGIKALSPHIGPYDMFAIEYGYRWYGKQTPEEEKELLQDFLAKHTDRLYKYSEAQDEGHHHHHH”, the “soluble on expression in E. coli” value was “soluble”. “MSLRPRQLLLATDLGARCDRALDRAIQLSRAWHAALTVVHAVEQVELIDDEPSWRQPPDAALAIQAELEDELGEAGLSSIDARVLKGKPSEVVLKVAEEVEAELILTGVKRDGALEKALLGDTVTELARQSRVPVLVVKKRLRKPYGRIVVATDLSELSRAALARAVDLFGPDNLVVFHASFAHFASRMDDRVAYESELRSDAIQNCRDFIRDVAGEEAAATMEVMVEYGEPDLLLEKYVQDKQVDLVVVSTRGRSGLLGVLLGSVAMRILDSVACDVLIVRSEGHHHHHH”: the “soluble on expression in E. coli” value is “soluble”. With “MSLRPSAPELDHAKRQRLARLPKPVPLGVCTLREQRWVVLDLETSGLNPNRDQVLSIGAVAIEDGAIDFAQQFERTLHRPLQKTNASVLIHGLGPSALAAGCDPAEALLDLLDFIGNSPVLAFHAPFDQRMLARALKETLGHRLQSMFLDVAELAPMLNPDTVLREAGLDDWVARFGLQVEERHHASADAQVTAELALILFSQARRQQLDSPLQLEQRLRGWRRRKMQSHGEGHHHHHH”, the “soluble on expression in E. coli” value was “soluble”. In the case of “MSLRRALIIDDEEAVLKIITHFIEMKDMPIKIVGKATSGDEAVDKIIGLEPDIVFIDIQMPIYNGLEVIEKTSHLSKKINFVVITAFNYFEYAQKALRLNVKDILLKPLDMKEFTKSVEKIIGYQYTNNDLLNEILEYINLNYSNDLKLNDCARLFLTNPSNISRIFKSNLNTTFISYLNHIRIEKSIELLENTTKSINEIAEIVGYNSLNNFYKNFKIEKGMTPKVYKLNTEGHHHHHH”, the “soluble on expression in E. coli” value is reported as “not soluble”. Regarding “MSLRSRDITLTGTYLPNTPVTLVVDGVAQVQGMTDSAGRFRLTGTLEPGRNRVYVMGEGPLASREYAVRYLPPYTDMAGHWAEAVVDALHERGVVSLYPLPRFEPEAQVTRMEFAVMVARALRLPAAEEQAPFTDVAVMPQWALLEVAAAVKAGIIKGMPDGSFAPDRLVTRAEMAAMLTRALAWAGLEVKPEAPEFADQAEIPDWAVEPVAAAVRHGLIKGYPDGTFRPGSPTTRAEAATMVHRLLQTVIGLNPEGHHHHHH”, the “soluble on expression in E. coli” value is “soluble”.

Take “MSLRTIPLLCFNDVYRVNQKYNPQPGAPEDNSPDRTITVSQFAELLLSERSKWADRQSEDQDDQEGPSKEGLVLFAGDVFNPSVESSVTRGSHMVPIMNALKVDYACVGNHDFDFGFPHLTKLVESTSFPWLLSNIVDTNTGRQPEPLKRFIVTERCGVKIGLIGLVEKDWIATIPSWPHNFRYRSMKDTALELSRELRDPNGEHQVDIIIALTHCRVPNDIRLAIELGAVADKPGVENEHGIDLIVGGHDHIYYIGKGATSWEGYAGRKDVPGTTEDHGVRLIKSGTDFRDLTSANLTVTPTPLGSIRRQLITSLTGKHLYVLPSSPSSPPFEELVKSLLSSVSEALTKPVCFTLTPFDARSEVVRTQESGLGNWIADVLMHAYAESIVQAKGKEGGLGEEFEGDADAAILCGGTLRGDSQYGPGKISLGDILEILPFEDPVVCIELDGKGIWNALESALSKWPAQEGRFPIVSGLAVKWDHTRPPGQRILSIHQIAQPKKDDDDWEDPADMVDFKEQEDGTTVVVKQKKLQLGEEVKNEEGGRMYKVITRDYMAQGYDGFEALKNRNFIVDDENGQIMSSILRSFLLGSSYIFRHKQLEEAAHSHLSRRTSEGHHHHHH”: the “soluble on expression in E. coli” value is “soluble”.

With “MSLRVADLLQHINLMKTSDSYGFKEEYESFFEGQSASWDVAKKDQNRAKNRYGNIIAYDHSRVILQPVEDDPSSDYINANYIDGYQRPSHYIATQGPVHETVYDFWRMIWQEQSACIVMVTNLVEVGRVKCYKYWPDDTEVYGDFKVTCVEMEPLAEYVVRTFTLERRGYNEIREVKQFHFTGWPDHGVPYHATGLLSFIRRVKLSNPPSAGPIVVHCSAGAGRTGCYIVIDIMLDMAEREGVVDIYNCVKALRSRRINMVQTEEQYIFIHDAILEACLCGETAIPVCEFKAAYFDMIRIDSQTNSSHLKDEFQTLNSVTPRLQAEDCSIACLPRNHDKNRFMDMLPPDRCLPFLITIDGESSNYINAALMDSYRQPAAFIVTQYPLPNTVKDFWRLVYDYGCTSIVMLNEVDLSQGCPQYWPEEGMLRYGPIQVECMSCSMDCDVINRIFRICNLTRPQEGYLMVQQFQYLGWASHREVPGSKRSFLKLILQVEKWQEECEEGEGRTIIHCLNGGGRSGMFCAIGIVVEMVKRQNVVDVFHAVKTLRNSKPNMVEAPEQYRFCYDVALEYLESSEGHHHHHH”, the “soluble on expression in E. coli” value was “soluble”. “MSLRVLFLRPDNEDNELNEKLMILRKNGIEVLNIPIFKIKCVSYSLPTYDYEALAFTSRNSVICFKDRTLIKNVHKIYAIGEETAELLMKMYNVNPITPERFTSIELAKRILEDKVNSILSIRSRKASEDMRNILNGKIKYDEIYVYDSEIIRDNINEISKILTECEVDAIAFTSSLMAKLIGPFIRGKCNIIIFSIGPMTTETLKRVNNKVKIIESKTHSIKGIIETILVEMKRNGRDEGHHHHHH”: the “soluble on expression in E. coli” value is “soluble”.
